Consider one molecule from article PMC9170038, “Crowdsourced RNA design discovers diverse, reversible, efficient, self-contained molecular switches”.

This series concerns the target MS2 coat protein, dlFG mutant (Escherichia phage MS2, UniProt P03612, del68-81insG). The experiment in a line: 4 mM Mg2+; L-tryptophan 2.4 mM; RNA-MaP array; 100 mM Tris-HCl pH 7.5, 80 mM KCl, 4 mM MgCl2, 0.1 mg/mL BSA, 1 mM DTT, 0.01 mg/mL yeast tRNA, 0.01% Tween-20; protein 1.5 nM to 3 uM; 37 C (Table S3). The following applies: chain copies: 2; label: tethered by stalled RNA polymerase.

B1: Eterna 7733059 (Exclusion - Tryptophan B) (ssRNA)
RNA: GGAGUCGGCACGGCCGCCACUGCGGUGGUGUGACAUGAGGAUCACCCAUGUUGUCAUGCGGCCCUUAGGACCGGGUGGCGGUUCC
Turning to B1, the affinity, expressed as Kd, was 57 nM.
